{
  "source": "patent US20230125550A1",
  "about": "(ARCELLX, published 2023)",
  "data": [
    {"target": "T1, recombinant human CD123-Fc (human, UniProt P26951 19-305)", "T1 construct": "not shown: Fc part of CD123-Fc", "T1 sequence": "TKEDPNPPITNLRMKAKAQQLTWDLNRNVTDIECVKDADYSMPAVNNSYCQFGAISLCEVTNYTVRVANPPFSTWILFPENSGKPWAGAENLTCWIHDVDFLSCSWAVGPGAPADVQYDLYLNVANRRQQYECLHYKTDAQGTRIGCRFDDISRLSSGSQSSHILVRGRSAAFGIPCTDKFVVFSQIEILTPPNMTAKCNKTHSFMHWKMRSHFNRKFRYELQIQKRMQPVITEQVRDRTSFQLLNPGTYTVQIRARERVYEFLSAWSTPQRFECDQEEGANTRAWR", "assay": "phage ELISA, captured CD123-Fc", "procedure,_shortened": "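Readout is the clone-averaged A450 ratio of target-Fc over IgG1-Fc wells, detected with HRP-conjugated anti-M13. Each Fc protein (5 nM) was captured on goat anti-human IgG1-Fc-coated plates. Phage were rescued with VCSM13 from BCMA-panning colonies and added at 5× dilution.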", "units": {"ELISA_avg": "ratio A450 target/IgG1-Fc"}, "values": [
      {"binder": "SEQ ID NO: 626 (designed binder, D domain, on phage) MGSWYEFENRLFAIEERLWALGGSEAELAWFEYEIANFEWGLQSYKGKGNPEVEALDNEAEAIDIELAAYRHN", "ELISA_avg": 3.3},
      {"binder": "SEQ ID NO: 609 (designed binder, D domain, on phage) MGSWWEFEDRLYAIDDRLWALGGSEAELAQFEREIAQFEIWLQEYKGKGNPEVEALDDEATAINSELFAYRHN", "ELISA_avg": 5.5},
      {"binder": "SEQ ID NO: 625 (designed binder, D domain, on phage) MGSWYEFEQRLEAIEWRLGALGGSEAELATFEEDIADFEEWLQEYKGKGNPEVEALQYEAYAIAEELHAYRHN", "ELISA_avg": 4.4},
      {"binder": "SEQ ID NO: 594 (designed binder, D domain, on phage) MGSWVEFDSRLAAIDYRLEALGGSEAELAWFEYTIANFEHTLQMYKGKGNPEVEALVYEAHAIATELQAYRHN", "ELISA_avg": 3.4},
      {"binder": "SEQ ID NO: 603 (designed binder, D domain, on phage) MGSWVEFMDRLEAIEERLSALGGSEAELAFFEWEIAEFEEHLQVYKGKGNPEVEALEWEALAITEELAAYRHN", "ELISA_avg": 4},
      {"binder": "SEQ ID NO: 621 (designed binder, D domain, on phage) MGSWYEFLARLYAIDERLWALGGSEAELATFEHWIADFEEQLQSYKGKGNPEVEALTDEAVAIGEELSAYRHN", "ELISA_avg": 4.5},
      {"binder": "SEQ ID NO: 616 (designed binder, D domain, on phage) MGSWWEFKYRLDAICFRLAALGGSEAELASFEDEIAYFEEDLQGYKGKGNPEVEALDYEALAIWDELAAYRHN", "ELISA_avg": 3.1},
      {"binder": "SEQ ID NO: 606 (designed binder, D domain, on phage) MGSWWEFEIRLDAIDERLWALGGSEAELAWFEQSIAFFENDLQVYKGKGNPEVEALRWEANAIIEELFAYRHN", "ELISA_avg": 3.2},
      {"binder": "SEQ ID NO: 607 (designed binder, D domain, on phage) MGSWYEFEWRLDAIDRRLWALGGSEAELADFEEEIADFEWMLQNYKGKGNPEVEALVDEASAIQTELWAYRHN", "ELISA_avg": 10},
      {"binder": "SEQ ID NO: 599 (designed binder, D domain, on phage) MGSWYEFQERLDAIDSRLWALGGSEAELAWFEYTIAEFEKELQMYKGKGNPEVEALGTEAVAISEELMAYRHN", "ELISA_avg": 5.5},
      {"binder": "SEQ ID NO: 602 (designed binder, D domain, on phage) MGSWFEFNDRLDAISERLSALGGSEAELAYFEWQIAVFEKTLQNYKGKGNPEVEALTLEANAIFEELEAYRHN", "ELISA_avg": 3.9},
      {"binder": "SEQ ID NO: 618 (designed binder, D domain, on phage) MGSWWEFNARLDAIEDRLMALGGSEAELAYFEDIIASFENILQQYKGKGNPEVEALWYEAYAIEKELNAYRHN", "ELISA_avg": 3.4},
      {"binder": "SEQ ID NO: 619 (designed binder, D domain, on phage) MGSWIEFWNRLEAIEERLYALGGSEAELAYFEDEIAEFEIYLQQYKGKGNPEVEALKHEAEAINKELMAYRHN", "ELISA_avg": 5.2},
      {"binder": "SEQ ID NO: 623 (designed binder, D domain, on phage) MGSWFEFETRLEAIDLRLWALGGSEAELATFEDVIAFFEDWLQFYKGKGNPEVEALKMEAWAIGEELHAYRHN", "ELISA_avg": 6.6},
      {"binder": "SEQ ID NO: 624 (designed binder, D domain, on phage) MGSWHEFWQRLEAIEGRLWALGGSEAELADFESLIADFEEQLQEYKGKGNPEVEALMAEAEAIDNELRAYRHN", "ELISA_avg": 7},
      {"binder": "SEQ ID NO: 617 (designed binder, D domain, on phage) MGSWDEFAMRLEAIQARLFALGGSEAELAIFEDEIAFFETMLQDYKGKGNPEVEALEYEAAAIEAELGAYRHN", "ELISA_avg": 3.7},
      {"binder": "SEQ ID NO: 608 (designed binder, D domain, on phage) MGSWYEFVYRLRAIDERLDALGGSEAELAMFEFEIAFFEDQLQRYKGKGNPEVEALVDEAQAIDFELFAYRHN", "ELISA_avg": 4.5},
      {"binder": "SEQ ID NO: 610 (designed binder, D domain, on phage) MGSWDEFEFRLEAIDSRLWALGGSEAELAVFEYEIAQFEFMLQEYKGKGNPEVEALGMEAWAIENELFAYRHN", "ELISA_avg": 3.6},
      {"binder": "SEQ ID NO: 601 (designed binder, D domain, on phage) MGSWFEFGDRLEAIDERLYALGGSEAELAQFEWWIAEFEHHLQDYKGKGNPEVEALEYEADAIWGELHAYRHN", "ELISA_avg": 4.5},
      {"binder": "SEQ ID NO: 612 (designed binder, D domain, on phage) MGSWYEFFDRLDAIDERLWALGGSEAELAWFEAEIAEFEMELQGYKGKGNPEVEALDVEAHAIEMELFAYRHN", "ELISA_avg": 3.7},
      {"binder": "SEQ ID NO: 598 (designed binder, D domain, on phage) MGSWYEFDERLDAIFDRLWALGGSEAELAYFEQVIATFEKTLQRYKGKGNPEVEALDTEAKAISWELDAYRHN", "ELISA_avg": 3},
      {"binder": "SEQ ID NO: 595 (designed binder, D domain, on phage) MGSWTEFDERLDAIDWRLEALGGSEAELAWFEGDIALFEQYLQVYKGKGNPEVEALMEEADAIKAELDAYRHN", "ELISA_avg": 4.5},
      {"binder": "SEQ ID NO: 613 (designed binder, D domain, on phage) MGSWYEFMGRLEAIDERLQALGGSEAELAWFEHEIAEFEWSLQWYKGKGNPEVEALRFEAGAIPWELWAYRHN", "ELISA_avg": 3.5},
      {"binder": "SEQ ID NO: 615 (designed binder, D domain, on phage) MGSWEEFHMRLIAIDERLWALGGSEAELAGFEESIAYFESQLQDYKGKGNPEVEALDYEAHAIWRELYAYRHN", "ELISA_avg": 3.9},
      {"binder": "SEQ ID NO: 620 (designed binder, D domain, on phage) MGSWNEFVIRLFAIDDRLYALGGSEAELAWFEDEIATFEYELQRYKGKGNPEVEALEYEAEAIVSELFAYRHN", "ELISA_avg": 3.5},
      {"binder": "SEQ ID NO: 614 (designed binder, D domain, on phage) MGSWVEFSNRLDAIWERLQALGGSEAELAYFEWEIAEFEWELQSYKGKGNPEVEALNAEADAIEWELEAYRHN", "ELISA_avg": 5.1},
      {"binder": "SEQ ID NO: 591 (designed binder, D domain, on phage) MGSWVEFDNRLFAIDERLWALGGSEAELAWFEEEIASFEDNLQKYKGKGNPEVEALQLEAFAIMEELDAYRHN", "ELISA_avg": 3.3},
      {"binder": "SEQ ID NO: 597 (designed binder, D domain, on phage) MGSWWEFDSRLDAIDFRLWALGGSEAELAWFEVEIADFEDWLQLYKGKGNPEVEALWHEADAIVTELYAYRHN", "ELISA_avg": 3.2},
      {"binder": "SEQ ID NO: 593 (designed binder, D domain, on phage) MGSWFEFDARLMAINDRLWALGGSEAELAAFEYHIALFEDQLQMYKGKGNPEVEALTLEAVAINEELWAYRHN", "ELISA_avg": 4},
      {"binder": "SEQ ID NO: 600 (designed binder, D domain, on phage) MGSWEEFEDRLWAIDGRLYALGGSEAELAWFEQWIATFEEDLQDYKGKGNPEVEALEYEASAIFEELEAYRHN", "ELISA_avg": 9.4},
      {"binder": "SEQ ID NO: 596 (designed binder, D domain, on phage) MGSWIEFDERLDAIDFRLWALGGSEAELAWFEGWIAEFESDLQLYKGKGNPEVEALNEEANAIFHELSAYRHN", "ELISA_avg": 7},
      {"binder": "SEQ ID NO: 588 (designed binder, D domain, on phage) MGSWMEFEDRLMAIVDRLWALGGSEAELADFEWNIAMFEEELQWYKGKGNPEVEALGDEAEAIEWELYAYRHN", "ELISA_avg": 6.8},
      {"binder": "SEQ ID NO: 604 (designed binder, D domain, on phage) MGSWIEFMDRLWAIDQRLWALGGSEAELAWFEEEIAWFEEELQVYKGKGNPEVEALEWEATAISEELWAYRHN", "ELISA_avg": 6.5},
      {"binder": "SEQ ID NO: 605 (designed binder, D domain, on phage) MGSWEEFNWRLRAIDERLFALGGSEAELAWFEYDIAEFEEQLQVYKGKGNPEVEALRVEAAAIAEELYAYRHN", "ELISA_avg": 5.4},
      {"binder": "SEQ ID NO: 592 (designed binder, D domain, on phage) MGSWFEFDDRLEAIFDRLWALGGSEAELAMFEFAIAEFEDALQEYKGKGNPEVEALYEEAVAIDEELYAYRHN", "ELISA_avg": 4.1},
      {"binder": "SEQ ID NO: 590 (designed binder, D domain, on phage) MGSWEEFLFRLEAIQDRLWALGGSEAELAWFEYEIASFEDVLQSYKGKGNPEVEALSTEAKAIDYELFAYRHN", "ELISA_avg": 8.2},
      {"binder": "SEQ ID NO: 611 (designed binder, D domain, on phage) MGSWEEFEWRLDAIDERLWALGGSEAELATFEYEIAIFENELQQYKGKGNPEVEALDSEAYAIERELGAYRHN", "ELISA_avg": 4.3},
      {"binder": "SEQ ID NO: 589 (designed binder, D domain, on phage) MGSWEEFEDRLFAIDSRLWALGGSEAELAEFENIIASFEEVLQEYKGKGNPEVEALSVEAFAIDRELGAYRHN", "ELISA_avg": 3.7},
      {"binder": "SEQ ID NO: 622 (designed binder, D domain, on phage) MGSWLEFETRLHAIDERLWALGGSEAELAEFEEHIAWFEEDLQFYKGKGNPEVEALDFEADAIGWELWAYRHN", "ELISA_avg": 4.6}
    ]}
  ]
}
